From PMC11358013, “FANCD2–FANCI surveys DNA and recognizes double- to single-stranded junctions” (Nature, 2024)

Tests used:
[1] = biological target: T1, Cy3 labelled monoubiquitinated Gallus gallus FANCD2_ybbR (Gallus gallus | , UniProt Q68Y81 1-1439; P0CG48 1-76, monoubiquitinated with His-tagged ubiquitin; Cy3 (LD555-CoA) conjugated to the ybbR tag | joined to a lysine of FANCD2); experiment: single-molecule two-colour confocal imaging on optically trapped DNA; ubD2–I formed by incubating purified ubFANCD2 and FANCI with relaxed, optically trapped λ DNA (less than 1 pN), then moved to the protein-free channel; kymographs at 15 pN; details: both partners purified
T1 construct: FANCD2, Gallus gallus, full-length ybbR-tagged construct as in m3; ubiquitin, His-tagged, bought from Enzo Life Sciences; also called ubFANCD2; ubFANCD2_ybbR; copies: 1 + 1

[2] = biological target: T2, ybbR-tagged full-length Gallus gallus FANCD2 labelled with Cy3 (Gallus gallus, UniProt Q68Y81 1-1439, modified Cy3 (LD555-CoA) conjugated to the carboxyl-terminal ybbR tag); experiment: single-molecule two-colour confocal imaging on optically trapped DNA; 5 nM labelled D2–I loaded on λ DNA held between beads, imaged in the protein-free channel; 20 mM HEPES pH 7.5, 75 mM NaCl, 0.5 mg/ml BSA, 1 mM TCEP; 22 °C; details: both partners purified
T2 construct: FANCD2, Gallus gallus, codon-optimized full-length construct; also called FANCD2-Cy3; FANCD2-ybbR; source: Sf9, purified (Strep-Tactin, heparin, Superdex 200), labelled with SFP synthase and gel filtered

binding result [1]: binds | binding result [2]: binds
B1: ybbR-tagged full-length Gallus gallus FANCI labelled with Cy5 (natural protein, UniProt B0I564 1-1338, looked up)
chain: MAQRILQLAAEGSPERLQEALQGLTEGELGDMVTRQALRGRETAALLKGIFKGSPCSQQSGVLRRLQVYKHCVSLVESGDLHVGKVSEIIGLLMLEARQLPGHALAELATLFVEVIKRGSLSNGKSLELFSTVLTALSNSKESLAYGKGELNGEEFKKQLINTLCSSKWDPQCVIHLANMFRDIPLSGEELQFVVEKVLRMFSKLDLQEIPPLVYQLLLLSAKGSKKTVLEGIISFFNQLDKRQKEEQRVPQSADLEVATVPLDQLRHVEGTVILHIVSAINLDQDIGEELIKHLKTEQQKDPGKALCPFSVSLLLSTAVKHRLQEQIFDFLKTSITRSCKDLQILQASKFLQDLCPQQYDVTAVILEVVKNSAFGWDHVTQGLVDLGFSLMESYEPKKSFGGKAAETNLGLSKMPAQQACKLGASILLETFKVHEPIRSDILEQVLNRVLTKAASPVSHFIDLLSNIVVSAPLVLQNSSSRVTETFDNLSFLPIDTVQGLLRAVQPLLKVSMSVRDSLILVLQKAIFSRQLDARKAAVAGFLLLLRNFKILGSLTSSQCSQAIGATQVQADVHACYNSAANEAFCLEILGSLRRCLSQQADVRLMLYEGFYDVLRRNSQLASSIMETLLSQIKQYYLPQQDLLPPLKLEGCIMAQGDQIFLQEPLAHLLCCIQHCLAWYKSTVHLCKGAEDEEEEEDVGFEQNFEEMLESVTRRMIKSELEDFELDKSADFSPSSGVGVKNNIYAIQVMGICEVLIEYNFKIGNFSKNKFEDVLGLFTCYNKLSEILKEKAGKNKSTLGNRIARSFLSMGFVSTLLTALFRDNAQSHEESLAVLRSSTEFMRYAVSVALQKVQQLEEMGQTDGPDGQNPEKMFQNLCKITRVLLWRYTSIPTAVEESGKKKGKSISLLCLEGLLRIFNTMQQLYAARIPQFLQALDITDGDAEEADINVTEKAAFQIRQFQRSLVNQLSSAEDDFNSKETQLLITILSTLSKLLDPGSQQFLQFLTWTVKICKENALEDLSCCKGLLTLLFSLHVLYKSPVSLLRELAQDIHACLGDIDQDVEIESRSHFAIVNVKTAAPTVCLLVLGQADKVLEEVDWLIKRLTILGSDTSEDSTQASNQTQALEKGVILQLGTLLTVFHELVQTALPAGSCVDSLLRSLSKTYAILTSLIKHYIQACRSTSNTVPGRLEKLVKLSGSHLTPQCYSFITYVQNIHSESLSFAEEKKKKKKEDETAVVSTVMAKVLRDTKPIPNLIFAIEQYEKFLIHLSKKSKVNLMQYMKLSTSRDFRINASMLDSVLQEQNTEDAENEPDNNQSGTAEQPDENQEPQKKRRRKK
modifications: modified Cy5 (LD655-CoA) conjugated to the carboxyl-terminal ybbR tag
notes: FANCI, Gallus gallus, full-length; C-terminal extension with a 3C protease site and 6xHis-tag before the ybbR tag; also called FANCI-Cy5; FANCI-ybbR; source: Sf9, purified (HisTrap, heparin, Superdex 200), labelled with SFP synthase and gel filtered
